B1: Protein NRD1 (Saccharomyces cerevisiae), P53617 (parent)
chain: MQQDDDFQNFVATLESFKDLKSGISGSRIKKLTTYALDHIDIESKIISLIIDYSRLCPDSHKLGSLYIIDSIGRAYLDETRSNSNSSSNKPGTCAHAINTLGEVIQELLSDAIAKSNQDHKEKIRMLLDIWDRSGLFQKSYLNAIRSKCFAMDISNNTANTASQQLSLDPKQRSKQILSNLKKSPPLNLNISLPTDLTSTDPAKQQAALFQVIAALQKHFKTLPSHTSVGTVAPPQAHTITEYGSRRERERERERYNSRRNRSRSPPAPFSQPSTGRKDRYPSVAQDQYSIGAPNTTFGTNNHHLYPDELNVSNNPHYRPKPVSYDSTLPPDHIKVYSRTLFIGGVPLNMKEWDLANVLKPFAEVQSVILNNSRKHAFVKVYSRHEAENVLQNFNKDGALPLRTRWGVGFGPRDCCDYQHGYSIIPMHRLTDADKKWSVSAQWGGTSGQPLVTGIVFEEPDIIVGEGVSSKAISQKMPTDSGRNGPRSGKPNKSGSISSISPVPYGNAPLASPPPQQYVQPMMQQPYGYAPNQPLPSQGPAAAAPPVPQQQFDPTAQLNSLMNMLNQQQQQQQQS
partner: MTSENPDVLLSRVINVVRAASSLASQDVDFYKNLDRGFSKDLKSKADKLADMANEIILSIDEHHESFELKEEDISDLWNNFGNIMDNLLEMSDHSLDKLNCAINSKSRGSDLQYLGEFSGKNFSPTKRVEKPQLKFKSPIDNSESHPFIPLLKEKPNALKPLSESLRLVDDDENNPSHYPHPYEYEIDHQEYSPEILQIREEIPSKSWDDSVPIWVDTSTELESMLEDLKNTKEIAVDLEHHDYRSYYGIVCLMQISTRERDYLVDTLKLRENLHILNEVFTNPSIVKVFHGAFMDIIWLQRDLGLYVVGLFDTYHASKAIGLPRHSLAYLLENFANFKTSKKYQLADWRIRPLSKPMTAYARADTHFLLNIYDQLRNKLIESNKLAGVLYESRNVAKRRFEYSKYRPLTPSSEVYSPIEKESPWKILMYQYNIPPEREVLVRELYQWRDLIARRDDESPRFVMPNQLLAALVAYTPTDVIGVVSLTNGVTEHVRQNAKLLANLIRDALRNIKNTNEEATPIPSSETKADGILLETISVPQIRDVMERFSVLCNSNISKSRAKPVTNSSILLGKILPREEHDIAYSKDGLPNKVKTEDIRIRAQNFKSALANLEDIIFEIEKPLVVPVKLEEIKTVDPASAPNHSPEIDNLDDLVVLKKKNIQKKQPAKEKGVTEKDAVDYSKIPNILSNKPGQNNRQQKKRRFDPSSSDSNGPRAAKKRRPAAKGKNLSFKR

The variants in this test derive from B1. The conditions noted are these: with rrp6_yeast RRP6, Q12149.
For V379R, the “effect of a mutation on the interaction” value is recorded as “with no effect”.
